Residue numbers refer to the chain shown, from its start. Names may count otherwise.
B1: 5.6: bispecific M-CSFRGD variant from sort five; M-CSFM loop replaced by XXXRGDXXX motif; binds c-FMS and αvβ3 integrin (protein)
chain: EEVSEYCSHMIGSGHLQSLQRLIDTYPRGDMCSITFEFVDQEQLKDPVCYLKKAFLLVQDIMEDTMRFRDNTPNAIAIVQLQELSLRLKSCFTKDYEEHDKACVRTFYETPLQLLEKVKNVFNETKNLLDKDWNIFSKNCNNSFAECSSQGHERQSEGS
modifications: left off: small tags and cut ends
B2: M-CSFM: 158 amino acid M-CSF with cysteine at position 31 replaced by serine (SEQ ID NO: 2) (protein)
chain: EEVSEYCSHMIGSGHLQSLQRLIDSQMETSSQITFEFVDQEQLKDPVCYLKKAFLLVQDIMEDTMRFRDNTPNAIAIVQLQELSLRLKSCFTKDYEEHDKACVRTFYETPLQLLEKVKNVFNETKNLLDKDWNIFSKNCNNSFAECSSQGHERQSEGS
B3: M-CSFC31S,M27R: M-CSF double mutant containing both C31S and M27R; monomeric, monospecific c-FMS antagonist (protein)
chain: B2 chain with M27R
B4: M-CSFWT: wild-type human M-CSF, disulfide-bond-linked homodimer which binds and activates c-FMS (protein)
chain: B2 chain with S31C

Key:
[1] = BS^3 chemical cross linking / SDS-PAGE dimerization assay; format: physicochemical; settings: for dimerization after BS^3 cross linking: Example 4, BS^3 up to 2500 μM, FIG. 8; for monomer/dimer bands after BS^3 cross linking: Example 11, BS^3 0-2500 μM, SDS-PAGE, FIG. 16A
Experimental: Then, Tris was added to a final concentration of 30 mM and the mixture was incubated for 15 min at room temperature. Samples were denaturized and loaded on 15% SDS-PAGE. The gels were stained with coomassie blue (InstantBlue, Expedeon, CA, USA) and visualized with MiniBis pro (DNR Bio-Imaging Systems, Jerusalem, Israel).
BS^3 crosslinking assay—Human (4 μg) and murine M-CSFWT (1 μg), M-CSFC31S (1 μg) and M-CSFC31S,M27R (2.5 μg) were incubated with different concentrations of BS^3 [bis(sulfosuccinimidyl)suberate] (ThermoFisher Scientific, MA, USA) cross linker (0, 25 μM, 100 μM, 250 μM, 500 μM, 1000 μM and 2500 μM) for 30 min at room temperature. Then, […] was added to a final concentration of 30 mM, and the mixture was incubated for 15 min at room temperature. Samples were denaturized with sample buffer, boiled, and loaded on 15% SDS-PAGE for protein separation. The gels were stained with InstantBlue staining (Expedeon, CA, USA) for 40 min, followed by two washing steps with double distilled water. The gels were visualized with MiniBis pro (DNR Bio-Imaging Systems, Jerusalem, Israel).
Experiments were conducted in order to verify that the purified variants are incapable of dimerizing. The purified variants were incubated with a cross linker reagent (BS^3 [bis(sulfosuccinimidyl)suberate]) to enhance and visualize non-covalent intermolecular interactions. Following incubation, the reactions were stopped and the samples were loaded in denaturized conditions on a protein gel.
To validate the structural and computational analysis and to verify that M-CSFC31S,M27R is indeed a monomer, several biophysical assays were conducted. First, purified murine and human M-CSFWT, M-CSFC31S and M-CSFC31S,M27R were crosslinked via lysine residues using different amounts of BS^3 reagent [bis(sulfosuccinimidyl)suberate], and the proteins sizes were evaluated using SDS-PAGE (FIG. 16A). Murine M-CSFWT served as positive control, since it has a lysine in the dimerization site (K68), which facilitates the intermolecular cross-linking of the two monomers in the dimer. […] The dimer band became more prominent at higher BS^3 concentrations. It is likely that the non-covalent dimerization allows other lysines in M-CSFC31S to come into close proximity and crosslink.

[2] = Small angle X-ray scattering (SAXS) analysis; format: physicochemical; settings: 3, 5 and 7 mg/ml
Experimental: The scattering intensity was recorded in the interval 0.012<q<0.7 Å−1. The measurements were performed under vacuum at 25° C. All three M-CSF variants were measured at concentrations of 3, 5 and 7 mg/ml. The scattering of the buffer was also measured and subtracted from the scattering of the samples. The magnitude of the scattering vector is described by the following equation: […]
Values for the radius of gyration (Rg) were derived from the small angle part of the SAXS profile (Guinier region, qRg<1.0), in PRIMUS [43]. In this region, Guinier approximation is applicable:
Rg values were also derived using in-house scripts designed to perform an automatic search for the best fitting parameters using GNOM (Svergun, D. I. (1992). J. Appl. Crystallogr. 25, 495-503). CRYSOL ([…] and Koch, M. H. J. (1995) J. Appl. Crystallogr. 28, 768-773) was used to compute the theoretical SAXS spectra based on the M-CSFWT crystal structure (PDB ID code: 3UF2). These spectra served as a reference for reconstruction of the experimental SAXS data. GASBOR (Svergun, D. I., Petoukhov, M. V. and Koch, M. H. J. (2001) Biophys. J. 80, 2946-2953) was used to reconstruct the molecular envelope based on the best GNOM fit obtained from the in-house script. Ten models were calculated for each sample and averaged using DAMAVER (Volkov, V. V. and Svergun, D. I. (2003) J. Appl. Crystallogr. 36, 860-864).
Next, the size of the M-CSF variants was evaluated in solution. M-CSFWT, M-CSFC31S and M-CSFC31S,M27R at concentrations of 0.5 mg/ml were subjected to dynamic light scattering (DLS) analysis at an angle of 90°. The peaks for the most abundant species in each sample were compared (FIG. 16B), and an estimated hydrodynamic radius was calculated from each peak. […] To confirm that the oligomeric state of M-CSFC31S,M27R is not concentration dependent, all M-CSF variants were subjected to SAXS measurements at concentrations of 3, 5 and 7 mg/ml. Of note is that the Rg values remained within a similar range for M-CSFWT and M-CSFC31S. […]

Molecule | dimerization after BS^3 cross linking [1] | monomer/dimer bands after BS^3 cross linking [1] | oligomeric state in solution [2]
B1 | did not show any dimerization | – | –
B2 | some dimerization interactions | mixture of monomer and dimer bands | exist as dimers in solution
B3 | – | did not produce any band corresponding to a dimer | is a monomer
B4 | – | only a faint band in a size that corresponds to a dimer | exist as dimers in solution
